Reference: article PMC12216678

Biological target: mouse FXII^HC5 (mouse)
Experiment: native MS; buffer-exchanged into 1 M ammonium acetate pH 7.0, electrospray, Bruker maXis qTOF, native-favouring source conditions

In the case of mouse FXII^HC5 (domain or fragment), the stoichiometry N is reported as 2.
